The chains are these.
B3: His-menin (natural protein, UniProt O00255-2 1-610, looked up)
chain: MGLKAAQKTLFPLRSIDDVVRLFAAELGREEPDLVLLSLVLGFVEHFLAVNRVIPTNVPELTFQPSPAPDPPGGLTYFPVADLSIIAALYARFTAQIRGAVDLSLYPREGGVSSRELVKKVSDVIWNSLSRSYFKDRAHIQSLFSFITGTKLDSSGVAFAVVGACQALGLRDVHLALSEDHAWVVFGPNGEQTAEVTWHGKGNEDRRGQTVNAGVAERSWLYLKGSYMRCDRKMEVAFMVCAINPSIDLHTDSLELLQLQQKLLWLLYDLGHLERYPMALGNLADLEELEPTPGRPDPLTLYHKGIASAKTYYRDEHIYPYMYLAGYHCRNRNVREALQAWADTATVIQDYNYCREDEEIYKEFFEVANDVIPNLLKEAASLLEAGEERPGEQSQGTQSQGSALQDPECFAHLLRFYDGICKWEEGSPTPVLHVGWATFLVQSLGRFEGQVRQKVRIVSREAEAAEAEEPWGEEAREGRRRGPRRESKPEEPPPPKKPALDKGLGTGQGAVSGPPRKPPGTVAGTARGPEGGSTAQVPAPTASPPPEGPVLTFQSEKMKGMKELLVATKINSSAIKLQLTAQSQVQMKKQKVSTPSDYTLSFLKRQRKGL

Where no end group is shown, it is not given here.

In the assay “His-menin” the target is B3. Kind of assay: co-IP.
For a further assay, the target named is His-Daxx (183–398) (UniProt Q9UER7 183-398). The assay is described as follows: pull-down.
The target of the next assay is GST-Daxx (UniProt Q9UER7 1-740). The assay is described as follows: pull-down.
Chain of GST-Daxx (Q9UER7 whole entry): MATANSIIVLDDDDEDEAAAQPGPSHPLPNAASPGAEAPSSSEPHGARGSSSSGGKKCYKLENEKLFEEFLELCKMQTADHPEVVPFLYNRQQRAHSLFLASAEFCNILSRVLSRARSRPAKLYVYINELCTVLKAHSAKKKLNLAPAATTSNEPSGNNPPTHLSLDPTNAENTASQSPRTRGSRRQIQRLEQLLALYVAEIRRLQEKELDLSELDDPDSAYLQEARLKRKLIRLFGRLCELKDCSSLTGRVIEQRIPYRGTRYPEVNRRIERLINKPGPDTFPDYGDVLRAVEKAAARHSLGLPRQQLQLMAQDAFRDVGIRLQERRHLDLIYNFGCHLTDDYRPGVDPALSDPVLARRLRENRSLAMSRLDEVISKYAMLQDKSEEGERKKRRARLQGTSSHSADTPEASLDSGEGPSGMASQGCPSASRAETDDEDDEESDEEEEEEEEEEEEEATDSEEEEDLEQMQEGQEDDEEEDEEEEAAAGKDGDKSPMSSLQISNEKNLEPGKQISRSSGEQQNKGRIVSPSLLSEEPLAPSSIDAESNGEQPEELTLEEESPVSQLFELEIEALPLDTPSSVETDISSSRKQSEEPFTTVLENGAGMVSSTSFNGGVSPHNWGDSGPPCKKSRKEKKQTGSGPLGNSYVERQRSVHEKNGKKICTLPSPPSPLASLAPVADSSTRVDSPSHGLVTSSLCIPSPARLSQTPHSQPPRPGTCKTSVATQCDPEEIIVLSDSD

B1: His-Daxx (183–260) (domain or fragment, UniProt Q9UER7 183-260, looked up)
chain: GSRRQIQRLEQLLALYVAEIRRLQEKELDLSELDDPDSAYLQEARLKRKLIRLFGRLCELKDCSSLTGRVIEQRIPYR
With B1, the binding result with His-menin is reported as “binds”.

B2: biotinylated menin peptide GTCKWEEGSPTPVLHVGWATQSE (peptide)
peptide: GTCKWEEGSPTPVLHVGWATQSE
modifications: also: biotinylated
In the case of B2, in the assay with His-Daxx (183–398), the binding result was “binds”.

As to B3, the binding result in the assay with GST-Daxx is given as “binds”.

The record behind these values is article PMC5243199 (Cancer research, 2016).
